B1: YGR097W 457-470 (peptide)
chain: SNDPIPPPRKVSDV
B2: YIL034C 92-105 (peptide)
chain: SPFPSAPLRKLEIL
B3: YLR162W 51-64 (peptide)
chain: SMSPLPPARANKSD
B4: YMR145C 263-276 (peptide)
chain: SLSPKDPERARLLS
B5: YIL130W 110-123 (peptide)
chain: SNNPSKPRKYKTKS
B6: YIL112W 773-786 (peptide)
chain: SMEPHSPKKAKSVE
B7: YBL004W 1825-1838 (peptide)
chain: SNSPQIPKKKVKDQ
B8: YNL233W 804-817 (peptide)
chain: SMTPDSPVKSDLTS
B9: YMR255W 106-119 (peptide)
chain: SPPPVSPSKMKTTK
B10: YNL309W 346-359 (peptide)
chain: SNVPTTPSRELNGT
B11: YDR216W 473-486 (peptide)
chain: SNSPISPHKLIYKN
B12: YER087W 333-346 (peptide)
chain: SNFPDFPLKKYLKN
B13: YMR068W 249-262 (peptide)
chain: SPLPVLPRRISTHT
B14: YDL029W 307-320 (peptide)
chain: SMYPGLPSRLEKEL
B15: YMR086W 654-667 (peptide)
chain: SNSPSPPEKINNKR

For the first assay, the target named is T1, Boi1 SH3 (BOI1_YEAST), P38041.
T1 chain: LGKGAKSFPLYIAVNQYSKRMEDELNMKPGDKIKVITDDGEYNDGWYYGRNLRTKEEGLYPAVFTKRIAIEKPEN
In words: SPOT array.
B1 gave a normalised SPOT signal, Boehringer light units (BLU); mean over the file's lines of this peptide of 76.6.
Still for that read-out and setting: the same measure for B2: 49.9; for B3: 120; for B4: 79.
On the same count and under the same terms, in the case of B5 it was 74.1; in that of B6, 58.3; in that of B7, 698.
With B8, the normalised SPOT signal, Boehringer light units (BLU); mean over the file's lines of this peptide came out at 85.9.
Still for that read-out and setting: in the case of B9 it was 105; in that of B10, 33.2.
On the same count and under the same terms, in the case of B11 it was 71.5.
Same read-out and setting: the same measure for B12: 59.5; for B13: 8950; for B14: 77.3.
Molecule B15 gave a normalised SPOT signal, Boehringer light units (BLU); mean over the file's lines of this peptide of 61.1.

The next assay has as its target T2, Boi2 SH3 (BOI2_YEAST), P39969.
T2 chain: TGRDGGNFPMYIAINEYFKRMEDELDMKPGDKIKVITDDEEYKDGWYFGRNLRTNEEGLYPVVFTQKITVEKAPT
In words: SPOT array.
For the molecule B1, the normalised SPOT signal, Boehringer light units (BLU); mean over the file's lines of this peptide came out at 13.3.
Turning to B2, the normalised SPOT signal, Boehringer light units (BLU); mean over the file's lines of this peptide amounted to 39.5.
Regarding B3, the normalised SPOT signal, Boehringer light units (BLU); mean over the file's lines of this peptide was determined as 460.
Same read-out and setting: in the case of B4 it was 38.1.
Same read-out and setting: in the case of B5 it was 35.7; in that of B6, 72.7.
With B7, the normalised SPOT signal, Boehringer light units (BLU); mean over the file's lines of this peptide worked out at 64.
The same measure, in the same setting: the same measure for B8: 38.5; for B9: 45.3.
Turning to B10, the normalised SPOT signal, Boehringer light units (BLU); mean over the file's lines of this peptide was determined as 71.4.
On the same count and under the same terms, in the case of B11 it was 0.
Same read-out and setting: in the case of B12 it was 15.4.
The same measure, in the same setting: in the case of B13 it was 40.5; in that of B14, 119; in that of B15, 51.3.

Another assay concerns the target T3, Rvs167 SH3 (RV167_YEAST), P39743.
T3 chain: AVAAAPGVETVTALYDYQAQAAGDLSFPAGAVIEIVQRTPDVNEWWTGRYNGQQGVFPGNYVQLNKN
Put plainly: SPOT array.
B1 yielded a normalised SPOT signal, Boehringer light units (BLU); mean over the file's lines of this peptide of 161.
On the same count and under the same terms, in the case of B2 it was 29.4; in that of B3, 2610; in that of B4, 80.3.
B5: the normalised SPOT signal, Boehringer light units (BLU); mean over the file's lines of this peptide is 42.6.
In turn, B6 came in with a normalised SPOT signal, Boehringer light units (BLU); mean over the file's lines of this peptide of 85.5.
The molecule B7 registered a normalised SPOT signal, Boehringer light units (BLU); mean over the file's lines of this peptide of 34.4.
Same read-out and setting: the same measure for B8: 31.9; for B9: 25.3.
Turning to B10, the normalised SPOT signal, Boehringer light units (BLU); mean over the file's lines of this peptide was 37.4.
Still for that read-out and setting: in the case of B11 it was 51.3; in that of B12, 17.9.
Same read-out and setting: the same measure for B13: 19000.
Still for that read-out and setting: the same measure for B14: 815; for B15: 47.

Another assay deals with T4, Yfr024 SH3 (LSB3_YEAST), P43603.
T4 chain: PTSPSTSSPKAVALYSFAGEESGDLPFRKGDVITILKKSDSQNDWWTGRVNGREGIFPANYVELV
In words: SPOT array.
Turning to B1, the normalised SPOT signal, Boehringer light units (BLU); mean over the file's lines of this peptide was 8060.
Same read-out and setting: in the case of B2 it was 86; in that of B3, 16600; in that of B4, 97.9.
Regarding B5, the normalised SPOT signal, Boehringer light units (BLU); mean over the file's lines of this peptide is 307.
On to B6, for which the normalised SPOT signal, Boehringer light units (BLU); mean over the file's lines of this peptide amounted to 1230.
On the same count and under the same terms, the same measure for B7: 1830; for B8: 407; for B9: 22.8.
On the same count and under the same terms, the same measure for B10: 272.
Still for that read-out and setting: in the case of B11 it was 0; in that of B12, 382.
Take B13: the normalised SPOT signal, Boehringer light units (BLU); mean over the file's lines of this peptide was 35800.
Still for that read-out and setting: in the case of B14 it was 6190.
Still for that read-out and setting: the same measure for B15: 116.

For another assay, the target named is T5, Yhr016c SH3 (YSC84_YEAST), P32793.
T5 chain: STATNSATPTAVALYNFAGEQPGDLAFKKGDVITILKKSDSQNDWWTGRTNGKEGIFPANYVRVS
Put plainly: SPOT array.
In turn, B1 gave a normalised SPOT signal, Boehringer light units (BLU); mean over the file's lines of this peptide of 2640.
Still for that read-out and setting: the same measure for B2: 205.
On the same count and under the same terms, the same measure for B3: 17100; for B4: 158; for B5: 61.8.
The same measure, in the same setting: in the case of B6 it was 133; in that of B7, 151.
In turn, B8 showed a normalised SPOT signal, Boehringer light units (BLU); mean over the file's lines of this peptide of 533.
The same measure, in the same setting: in the case of B9 it was 243; in that of B10, 210.
Same read-out and setting: the same measure for B11: 143.
On the same count and under the same terms, the same measure for B12: 201.
On to B13, for which the normalised SPOT signal, Boehringer light units (BLU); mean over the file's lines of this peptide was 29500.
Same read-out and setting: the same measure for B14: 3680.
B15 had a normalised SPOT signal, Boehringer light units (BLU); mean over the file's lines of this peptide of 136.

The record behind these values is paper PMC314469, “Protein Interaction Networks by Proteome Peptide Scanning” (PLoS Biology, 2004).
